Test results as given in paper PMC7535911.
Like-named read-outs stand apart in the source and are kept apart here.

Tests used:
[1] = biological target: ubiquitin-7-amino-4-methyl coumarin (Ub-AMC) (UniProt P0CG47)
[2] = biological target: ubiquitin-7-amino-4-methyl coumarin (Ub-AMC) (UniProt P0CG47); remark: listed apart in the source

Row | Substance | DUB activity in vitro with Ub-AMC as substrate (Kapp, percent of WT) [1] | DUB activity in vitro with Ub-AMC as substrate (Kapp, percent of WT) [2]
1 | TYMV PRO/DUB E759A (enzyme) | 137 % of WT | 
2 | TYMV PRO/DUB N760A (enzyme) | 135 % of WT | 
3 | TYMV PRO/DUB N760A/R844A (enzyme) |  | 344 % of WT
4 | TYMV PRO/DUB R844A (enzyme) |  | 320 % of WT
5 | TYMV PRO/DUB T763A (enzyme) | 89 % of WT | 
